Our source for the Kd, koff and kon values is patent US20200031927A1 (Memorial Sloan Kettering, published 2020).

The target of experiment [1] is T1, soluble KIR3DL1*002-Fc (human, UniProt P43629 22-338).
T1 construct: also called KIR3DL1 allele 002; Allele 002; not shown: Fc domain
The experiment in a line: SPR (BIACORE T-100). A general note: In SPR one partner is held on a chip, and binding of the other changes the refractive index at the surface.

In experiment [2] the target is T2, soluble KIR3DL1*033-Fc (human, UniProt P43629 22-340).
T2 construct: also called KIR3DL1 allele 033; Allele 033; not shown: Fc domain
T2 sequence (P43629 other isoform, or with tags, fused parts or gaps): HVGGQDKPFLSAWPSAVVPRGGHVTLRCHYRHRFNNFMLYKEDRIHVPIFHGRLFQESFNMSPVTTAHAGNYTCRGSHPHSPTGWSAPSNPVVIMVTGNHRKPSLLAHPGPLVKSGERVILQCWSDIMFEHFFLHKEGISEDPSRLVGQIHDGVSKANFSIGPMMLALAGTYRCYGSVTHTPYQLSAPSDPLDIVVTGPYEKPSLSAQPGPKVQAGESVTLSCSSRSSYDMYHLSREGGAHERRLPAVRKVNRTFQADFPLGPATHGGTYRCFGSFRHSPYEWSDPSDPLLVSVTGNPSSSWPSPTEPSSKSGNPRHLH
Nature of the experiment: SPR (BIACORE T-100).

Experiment [3] concerns the target T3, soluble KIR3DL1*001-Fc (human, UniProt P43629 22-340).
T3 construct: also called KIR3DL1 allele 001; KIR3DL1 allele-001 antigen; not shown: Fc domain
Nature of the experiment: SPR (BIACORE T-100).

The target of experiment [4] is T1, soluble KIR3DL1*002-Fc. The experiment in a line: BLI (ForteBio QK), hIgG1. On the technique in general: Biolayer interferometry detects binding as a change in optical thickness at a sensor tip.
Experiment [5] addresses T4, soluble KIR3DL1*007/015-Fc (human, UniProt P43629 22-338).
T4 construct: also called KIR3DL1 allele 007/015; CD158e allele 007/015; not shown: Fc domain
The experiment in a line: BLI (ForteBio QK), hIgG1.

Experiment [6] concerns the target T5, soluble KIR3DL1*020-Fc (human, UniProt P43629 22-339).
T5 construct: also called KIR3DL1 allele 020; CD158e allele 020; not shown: Fc domain
The experiment in a line: BLI (ForteBio QK), hIgG1.

Experiment [7] addresses T2, soluble KIR3DL1*033-Fc. Nature of the experiment: BLI (ForteBio QK), hIgG1.
Experiment [8] has as its target T3, soluble KIR3DL1*001-Fc. The experiment in a line: BLI (ForteBio QK), hIgG1.
Experiment [9] addresses T1, soluble KIR3DL1*002-Fc. The experiment in a line: SPR (BIACORE T-100), kinetics.
Experiment [10] addresses T3, soluble KIR3DL1*001-Fc. The experiment in a line: BLI (Forte-Bio), partial fit, IgG.
For experiment [11], the target named is T1, soluble KIR3DL1*002-Fc. Nature of the experiment: SPR (BIACORE T-100), kinetics; Biacore T-100, allele 002.
Experiment [12] addresses T3, soluble KIR3DL1*001-Fc. The experiment in a line: BLI (ForteBio QK), hIgG1; ForteBio, hIgG1, allele 001 (Table 2).

T4 sequence (P43629 other isoform, or with tags, fused parts or gaps): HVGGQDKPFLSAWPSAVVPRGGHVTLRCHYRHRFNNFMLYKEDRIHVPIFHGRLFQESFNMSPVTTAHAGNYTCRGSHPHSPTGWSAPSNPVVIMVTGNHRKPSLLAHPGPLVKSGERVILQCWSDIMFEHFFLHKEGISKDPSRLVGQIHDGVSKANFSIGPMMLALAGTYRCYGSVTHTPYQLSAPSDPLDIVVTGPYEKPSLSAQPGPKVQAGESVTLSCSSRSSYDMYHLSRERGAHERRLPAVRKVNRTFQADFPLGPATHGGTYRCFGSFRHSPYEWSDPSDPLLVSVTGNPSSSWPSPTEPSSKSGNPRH
T5 sequence (P43629 other isoform, or with tags, fused parts or gaps): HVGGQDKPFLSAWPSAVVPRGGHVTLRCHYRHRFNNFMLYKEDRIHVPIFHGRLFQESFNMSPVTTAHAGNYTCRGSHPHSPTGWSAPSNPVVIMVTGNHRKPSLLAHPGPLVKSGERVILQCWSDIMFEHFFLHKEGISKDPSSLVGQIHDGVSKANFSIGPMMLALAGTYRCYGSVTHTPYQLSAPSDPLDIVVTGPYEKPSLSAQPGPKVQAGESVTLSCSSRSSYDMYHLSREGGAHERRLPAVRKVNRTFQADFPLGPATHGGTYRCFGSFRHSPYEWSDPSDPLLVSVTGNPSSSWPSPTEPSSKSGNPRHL

B1: ET160-74 (antibody, human IgG1, V domains shown)
VH: QVQLVQSGAEVKKPGSSVKVSCKASGGTFSSYAISWVRQAPGQGLEWMGWMNPNSGNTGYAQKFQGRVTMTRNTSISTAYMELSSLRSEDTAVYYCARYSFHLDGWGQGTLVTVSS
VL: QSVLTQPPSVSAAPGQKVTISCSGSSSNVGNNYVSWYQQVPGTAPKLLIYDNNRRPSGIPDRFSGSKSGTSATLGITGLQTGDEADYYCGTWDNSLRVELFGGGTKVTVLG
notes: Tested as human IgG1 (hIgG1), lambda light chain
Regarding B1, the Kd in experiment [1] was 108 nM; in experiment [2] it was 62.2 nM; in experiment [3] it was 11.9 nM; in experiment [4], 8.6 nM; in experiment [5] it was 10.1 nM; in experiment [6], 11.2 nM. Also, the Kd in experiment [7] amounted to 11 nM; in [8] it was 13.3 nM; in experiment [9] it was 108 nM; in experiment [10] it was 13.3 nM. The values for the koff in experiment [9] and in experiment [10] were 0.0112 s⁻¹ and 0.00161 s⁻¹, respectively. The on-rate constant (kon) came to 103000 M⁻¹ s⁻¹ in [9] and 122000 M⁻¹ s⁻¹ in experiment [10].

B2: ET160-73 (antibody, human IgG1, V domains shown)
VH: QVQLVQSGAEVKKPGESLKISCKGSGYSFTSYWIGWVRQMPGKGLEWMGIIYPGDSDTRYSPSFQGQVTISADKSISTAYLQWSSLKASDTAMYYCARGREQLWLDGMDVWGQGTTVTVSS
VL: DVVMTQSPLSLPVTLGQPASISCRSTQSLVHSDGNTYLNWFQQRPGQSPRRLIYGVSNRDFGVPDRFSASGSGTDFTLKINRVEAEDVGVYYCMQGTHWPLTFGQGTKVEIKR
notes: Tested as human IgG1 (hIgG1), kappa light chain
For B2, the equilibrium dissociation constant (Kd) in experiment [1] stood at 124 nM; in experiment [2], 55.6 nM; in experiment [3] it was 136 nM; in [4] it was 16.3 nM; in [5], 16.1 nM; in experiment [6] it was 15.7 nM. For the same molecule, the dissociation constant Kd in experiment [7] worked out at 14.4 nM; in experiment [8] it was 21.2 nM; in experiment [9], 124 nM; in experiment [10], 21.2 nM. For the same molecule, the off-rate (koff) in experiment [9] stood at 0.00481 s⁻¹; in experiment [10], 0.00302 s⁻¹. The association rate constant (kon) in [9] amounted to 38900 M⁻¹ s⁻¹; in experiment [10], 143000 M⁻¹ s⁻¹.

B3: ET160-72 (antibody, human IgG1, V domains shown)
VH: QVQLVQSGGGVVRSGGSLRLTCAASGFTFGDYGMSWVRQAPGKGLEWVSGINWNGGGTGYADSVKGRFTISRDNAKDSLYLQMNSLRAEDTALYYCARVWGCGSTTCYEGADDAFDIWGQGTMVTVSS
VL: LPVLTQPPSISGAPRQRVTISCSGARSNIGNNAVNWYQQVPGEAPKLLIFYDDQQPSGISGRFSGSKSGTSASLAISGLQSEDEADYYCAAWDDSLNGWVFGGGTKLTVLG
notes: as for B1
Take B3: the Kd in [1] was 316 nM; in experiment [2], 138 nM; in experiment [3], 182 nM; in [4], 11.6 nM; in experiment [5] it was 11.6 nM; in [6] it was 11.4 nM. For the same molecule, the dissociation constant (Kd) in experiment [7] is 15.4 nM; in experiment [8] it was 15.8 nM; in experiment [9] it was 316 nM; in [10] it was 15.8 nM. Moreover, the koff in [9] came to 0.0159 s⁻¹; in experiment [10], 0.00212 s⁻¹. The on-rate (kon) stood at 50500 M⁻¹ s⁻¹ in [9] and 134000 M⁻¹ s⁻¹ in experiment [10].

B4: ET160-42 (antibody, human IgG1, V domains shown)
VH: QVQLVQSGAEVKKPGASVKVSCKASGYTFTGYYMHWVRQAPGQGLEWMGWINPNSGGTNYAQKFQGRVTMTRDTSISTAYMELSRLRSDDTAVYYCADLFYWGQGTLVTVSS
VL: QSALTQPASVSGSPGQSITISCTGTSSDVGGYNYVSWYQQHPGKAPKLMIYDVSNRPSGVSNRFSGSKSGNTASLTISGLQAEDEADYYCSSYTSSNTLVFGTGTKVTVLG
notes: Tested as human IgG1 (hIgG1), lambda light chain; Clone from a human scFv phage display library
For B4, the Kd in [1] was 93.5 nM; in experiment [2], 75.2 nM; in experiment [3], 89.5 nM; in [4], 8.5 nM; in experiment [5] it was 8.4 nM; in experiment [6], 10.1 nM. The equilibrium dissociation constant (Kd) in experiment [7] came out at 10.3 nM; in experiment [9], 93.5 nM; in [11], 93.5 nM; in experiment [12] it was 12.9 nM. The off-rate constant (koff) came out at 0.0171 s⁻¹ in experiment [9] and 0.00221 s⁻¹ in experiment [10]. In addition, the kon was 183000 M⁻¹ s⁻¹ in [9] and 172000 M⁻¹ s⁻¹ in [10].

B5: ET160-61 (antibody, human IgG1, V domains shown)
VH: QVQLVESGGGLVQPGRSLRLSCAASGFTFDDYAMHWVRQAPGKGLEWVSGISWNSGSIGYADSVKGRFTISRDNAKNSLYLQMNSLRAEDTAVYYCASSLRYFEWPIDYWGQGTLVTVSS
VL: NFMLTQPLSVSESPGKTVTISCTANGGSLASKYVQWFQQRPGSSPTTVIYDDNLRPSGVPDRFSGSIDTSSNSAALTISGLKTEDEADYYCQSYDNSSVVFGGGTKLTVLG
notes: as for B1
In the case of B5, the Kd in [1] was determined as 27.7 nM; in experiment [2], 10.8 nM; in experiment [3] it was 45.9 nM; in experiment [4], 21.7 nM; in experiment [5] it was 4.1 nM; in experiment [6] it was 19.4 nM. Also, the Kd came to 22.7 nM in experiment [7], 15.1 nM in experiment [8], 27.7 nM in experiment [9] and 15.1 nM in experiment [10]. Besides, the koff is 0.00232 s⁻¹ in [9] and 0.00193 s⁻¹ in experiment [10]. For the same molecule, the results for the kon in [9] and in [10] were 84000 M⁻¹ s⁻¹ and 127000 M⁻¹ s⁻¹, respectively.

B6: ET160-77 (antibody, human IgG1, V domains shown)
VH: EVQLVETGGGLVKPGGSLRLSCAASGFTFSDYYMSWIRQAPGKGLEWVSYISSSSSYTNYADSVKGRFTISRDNAKNSLYLQMNSLRAEDTAVYYCAREGIAAADAFDIWGQGTMVTVSS
VL: SYELTQPPSVSVAPGQAATITCAGDNIESKSVNWYQQKPGQAPVLVVYDDTVRPSGIPERFSGSNSGNPATLTISRSEAGDEADYYCQVWDNRRDHVVFGGGTKVTVLG
notes: as for B1
Take B6: the dissociation constant Kd in experiment [1] is 197 nM; in [2], 48.3 nM; in experiment [3], 53.1 nM; in [4] it was 10.9 nM; in [5], 11.4 nM; in experiment [6], 10.5 nM. The dissociation constant Kd in [7] amounted to 13.1 nM; in [8] it was 13.9 nM; in [9] it was 197 nM; in experiment [10], 13.9 nM. The koff in [9] worked out at 0.00987 s⁻¹; in experiment [10], 0.00222 s⁻¹. For the same molecule, the kon worked out at 50000 M⁻¹ s⁻¹ in experiment [9] and 160000 M⁻¹ s⁻¹ in [10].

Broadly, the Kd is the equilibrium constant for the complex coming apart. High values mean lower affinity, low ones higher affinity. In general, koff refers to the first-order rate constant of dissociation. High values mean a short-lived complex, low ones a long-lived complex. For orientation: kon means the second-order rate constant of association.
